This passage reports Kd results from PMC5575113, “Creating the Functional Single-Ring GroEL-GroES Chaperonin Systems via Modulating GroEL-GroES Interaction” (Scientific Reports, 2017).

Assay [1] deals with T1, GroEL^SR (GroEL R452A/E461A/S463A/V464A) (E. coli, UniProt P0A6F5 1-548, R452A | E461A | S463A | V464A).
T1 construct: GroEL, E. coli, single-ring variant; groEL^SR in the pTrc vector; also called single-ring GroEL; source: dialysis against 30% methanol, FastQ column
Kind of assay: MST; cochaperonin labelled with DyLight 650, unlabelled GroEL or GroEL^SR titrated (serial dilution of 15 samples), 30 min incubation; 50 mM TrisCl pH 7.5, 100 mM KCl, 10 mM MgCl2, 1 mM EDTA, 2 mM ADP, 0.5 mg/mL BSA; Monolith NT115, 80% LED, 40% IR-laser. Conditions: both partners purified.

Another assay deals with T2, GroEL (E. coli, UniProt P0A6F5 1-548).
T2 construct: GroEL, E. coli, expressed from pTrc; two heptameric rings (tetradecamer); also called chaperonin; double-ring GroEL; source: E. coli BL21(DE3), purified (methanol dialysis, FastQ column); copies: 14
In words: MST; cochaperonin labelled with DyLight 650; unlabelled GroEL or GroEL^SR in a serial dilution of 15 samples; 50 mM TrisCl pH 7.5, 100 mM KCl, 10 mM MgCl2, 1 mM EDTA, 2 mM ADP, 0.5 mg/mL BSA; 30 min incubation. Conditions: both partners purified.

A word on the Kd: it is the concentration at which binding is half-saturated.

B1: GroES (natural protein, E. coli, UniProt P0A6F9 1-97, looked up)
chain: MNIRPLHDRVIVKRKEVETKSAGGIVLTGSAAAKSTRGEVLAVGNGRILENGEVKPLDVKVGDIVIFNDGYGVKSEKIDNEEVLIMSESDILAIVEA
modifications: DyLight 650 NHS Ester amine reactive dye (labelled)
notes: GroES, E. coli; one heptameric ring; groES in pET3b; also called cochaperonin
In the case of B1, in assay [1], binding was put at a Kd of 3.67 nM.

B2: GroES (natural protein, E. coli, UniProt P0A6F9 1-97, looked up)
chain: B1 chain
modifications: DyLight 650 NHS ester on amines (for MST)
notes: GroES, E. coli, expressed from pET3b; heptamer; also called cochaperonin; wild type GroES
For B2, binding in the assay with GroEL was characterised by a dissociation constant (Kd) of 3.83 ± 0.93 nM.
